{"source": "paper PMC11574312", "about": "“The role of ATP-binding Cassette subfamily B member 6 in the inner ear” (Nature Communications, 2024)", "molecular_target": "the molecule itself", "assay": "cryo-EM structure; ABCB6 WT purified in DDM/CHS, about 3.6 mg/mL on grids; apo, inward-facing; final refinement with C2 symmetry applied"}
{"protein": "human ATP-binding cassette sub-family B member 6 (ABCB6) WT-Flag (natural protein, ABCB6, human, UniProt Q9NP58; the preparation holds the N-terminal TMD0, but the final model has no density for it; The protein was eluted from Flag resin with 3X Flag peptide and no tag cleavage is described) MVTVGNYCEAEGPVGPAWMQDGLSPCFFFTLVPSTRMALGTLALVLALPCRRRERPAGADSLSWGAGPRISPYVLQLLLATLQAALPLAGLAGRVGTARGAPLPSYLLLASVLESLAGACGLWLLVVERSQARQRLAMGIWIKFRHSPGLLLLWTVAFAAENLALVSWNSPQWWWARADLGQQVQFSLWVLRYVVSGGLFVLGLWAPGLRPQSYTLQVHEEDQDVERSQVRSAAQQSTWRDFGRKLRLLSGYLWPRGSPALQLVVLICLGLMGLERALNVLVPIFYRNIVNLLTEKAPWNSLAWTVTSYVFLKFLQGGGTGSTGFVSNLRTFLWIRVQQFTSRRVELLIFSHLHELSLRWHLGRRTGEVLRIADRGTSSVTGLLSYLVFNVIPTLADIIIGIIYFSMFFNAWFGLIVFLCMSLYLTLTIVVTEWRTKFRRAMNTQENATRARAVDSLLNFETVKYYNAESYEVERYREAIIKYQGLEWKSSASLVLLNQTQNLVIGLGLLAGSLLCAYFVTEQKLQVGDYVLFGTYIIQLYMPLNWFGTYYRMIQTNFIDMENMFDLLKEETEVKDLPGAGPLRFQKGRIEFENVHFSYADGRETLQDVSFTVMPGQTLALVGPSGAGKSTILRLLFRFYDISSGCIRIDGQDISQVTQASLRSHIGVVPQDTVLFNDTIADNIRYGRVTAGNDEVEAAAQAAGIHDAIMAFPEGYRTQVGERGLKLSGGEKQRVAIARTILKAPGIILLDEATSALDTSNERAIQASLAKVCANRTTIVVAHRLSTVVNADQILVIKDGCIVERGRHEALLSRGGVYADMWQLQQGQEETSEDTKPQTMER", "values": [{"measurement": "binding result", "value": "binds"}]}
